# The supplement of paper PMC7125110
# ± gives the standard error. For some assays here: This sample holds only a part of the variants without activity.
# B1: glmS ribozyme (parent)
# chain: AUAAAAGCGCCAGAACUACAGAAAUGUAGUUGACGAGGAGGAGGUUUAUCGAAUUUUCGGCGGAUGCCUCCAAA
# How the values were obtained:
# Conditions in all cases: with glucosamine-6-phosphate
# glucosamine-6-phosphate [1] = variants of: B1; test: kcat; higher = faster cleavage; RNA array
# Procedure, shortened: (§1)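 Barcoded ribozyme variants, transcribed in situ by E. coli RNA polymerase on sequenced MiSeq chips, were followed via a hybridised Cy3 probe at 37 °C. Glucosamine-6-phosphate ranged from 40 μM to 10 mM in HEPES/KCl/Mg(OAc)2 buffer. kobs came from decay fits to per-tile medians, and kcat and KM from weighted Michaelis–Menten fits.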
# glucosamine-6-phosphate [2] = variants of: B1; test: KM; higher = weaker cofactor use; RNA array
# Procedure, shortened: as §1
# glucosamine-6-phosphate [3] = variants of: B1; test: self-cleavage kobs at 640 uM GlcN6P; higher = faster cleavage; RNA array
# Procedure, shortened: as §1
# glucosamine-6-phosphate [4] = variants of: B1; test: self-cleavage kobs at 2500 uM GlcN6P; higher = faster cleavage; RNA array
# Procedure, shortened: as §1
# glucosamine-6-phosphate [5] = variants of: B1; test: self-cleavage kobs at 10000 uM GlcN6P; higher = faster cleavage; RNA array
# Procedure, shortened: as §1
# glucosamine-6-phosphate [6] = variants of: B1; test: self-cleavage kobs at 160 uM GlcN6P; higher = faster cleavage; RNA array
# Procedure, shortened: as §1
# glucosamine-6-phosphate [7] = variants of: B1; test: self-cleavage kobs at 40 uM GlcN6P; higher = faster cleavage; RNA array
# Procedure, shortened: as §1
Variant,kcat (glucosamine-6-phosphate [1]),KM (glucosamine-6-phosphate [2]),self-cleavage kobs at 640 uM GlcN6P (glucosamine-6-phosphate [3]),self-cleavage kobs at 2500 uM GlcN6P (glucosamine-6-phosphate [4]),self-cleavage kobs at 10000 uM GlcN6P (glucosamine-6-phosphate [5]),self-cleavage kobs at 160 uM GlcN6P (glucosamine-6-phosphate [6]),self-cleavage kobs at 40 uM GlcN6P (glucosamine-6-phosphate [7])
U31C U65G,0.0016 ± 0.00034 s⁻¹,5250 ± 1700 µM,0.000198 ± 2.5e-05 s⁻¹,0.000465 ± 7.2e-05 s⁻¹,0.00108 ± 0.00013 s⁻¹,–,–
C67U C68G,2.52e-05 ± 6.7e-06 s⁻¹,–,3.49e-05 ± 1.2e-05 s⁻¹,2.57e-05 ± 1.2e-05 s⁻¹,–,–,–
C34G C67G,4.36e-05 ± 2.1e-05 s⁻¹,–,–,4.65e-05 ± 1.9e-05 s⁻¹,–,–,–
G9A U47G,< 1e-05 s⁻¹,–,< 1e-05 s⁻¹,–,–,–,–
U57A C70U,0.000272 ± 5.5e-05 s⁻¹,2300 ± 790 µM,5.92e-05 ± 7.8e-06 s⁻¹,0.000133 ± 1.9e-05 s⁻¹,0.000234 ± 3.8e-05 s⁻¹,5.07e-05 ± 2.3e-05 s⁻¹,–
G35A G38A,< 1e-05 s⁻¹,–,–,–,–,–,–
G13C U55C,9.82e-05 ± 8.2e-06 s⁻¹,1500 ± 410 µM,3.6e-05 ± 1.6e-05 s⁻¹,5.66e-05 ± 1.3e-05 s⁻¹,8.8e-05 ± 1.5e-05 s⁻¹,–,< 1e-05 s⁻¹
C58G C67A,4.68e-05 ± 7.6e-06 s⁻¹,–,6.09e-05 ± 1.3e-05 s⁻¹,4.7e-05 ± 1.4e-05 s⁻¹,3.78e-05 ± 1e-05 s⁻¹,–,–
G44A A53G,0.000575 ± 4.5e-05 s⁻¹,2460 ± 440 µM,0.000116 ± 2.3e-05 s⁻¹,0.000319 ± 6.7e-05 s⁻¹,0.000456 ± 4.8e-05 s⁻¹,–,–
G38U G63A,< 1e-05 s⁻¹,–,–,–,–,< 1e-05 s⁻¹,< 1e-05 s⁻¹
A12G A53C,0.000173 ± 3.8e-05 s⁻¹,2220 ± 1100 µM,5e-05 ± 6.8e-06 s⁻¹,7.64e-05 ± 8.5e-06 s⁻¹,0.000157 ± 1.5e-05 s⁻¹,–,–
G7A A14G,9.79e-05 ± 3.9e-06 s⁻¹,3550 ± 470 µM,–,3.92e-05 ± 1.5e-05 s⁻¹,7.23e-05 ± 6.8e-06 s⁻¹,–,–
U47G U55A,0.00811 ± 0.0025 s⁻¹,1410 ± 600 µM,0.00187 ± 0.00028 s⁻¹,0.00514 ± 0.00081 s⁻¹,0.00878 ± 0.0013 s⁻¹,0.000855 ± 0.00014 s⁻¹,0.000281 ± 3.1e-05 s⁻¹
G40C C67U,0.000108 ± 1.3e-05 s⁻¹,–,–,7.55e-05 ± 1.5e-05 s⁻¹,8.8e-05 ± 7e-06 s⁻¹,–,–
C67A C70G,3.41e-05 ± 3.9e-06 s⁻¹,–,4.26e-05 ± 9.9e-06 s⁻¹,2.92e-05 ± 7.8e-06 s⁻¹,3.34e-05 ± 5.8e-06 s⁻¹,–,–
U30G U45G,0.00151 ± 0.00041 s⁻¹,2200 ± 950 µM,0.000382 ± 6.4e-05 s⁻¹,0.00102 ± 0.00015 s⁻¹,0.00103 ± 0.00021 s⁻¹,7.13e-05 ± 2.2e-05 s⁻¹,3.05e-05 ± 1.4e-05 s⁻¹
U49A C71G,2.68e-05 ± 1e-05 s⁻¹,–,3.32e-05 ± 1.2e-05 s⁻¹,–,–,–,–
U57A C61G G62C A64G U65A G66U C67G U69C,3.85e-05 ± 9.7e-06 s⁻¹,–,–,4.83e-05 ± 2e-05 s⁻¹,–,–,–
